# Laboratory results as given in US20260256741A1, “ANTICANCER MALEIMIDE DERIVATIVES FOR USE WITH IMMUNE CHECKPOINT BLOCKADE” (BROWN UNIVERSITY, priority 2022, published 2026).
# Assays:
# HT-29 CRC cells = experiment: Western blot analysis of HT-29 CRC cells; format: cell-based, human; settings: 250 ng/mL IFN-γ
# Experimental: (§1) Recombinant Human TNF-α (Cat #300-01A, PeproTech, Rocky Hill, NJ, USA) and Recombinant Human IFN-γ (Cat #300-02, Peprotech, Rocky Hill, NJ, USA) were purchased for use in western blot analysis while rhTRAIL was generated in-house. Kim et al., J Biol Chem., 279(38):40044-52 (2004).
# (§2) Cells were plated in a 6-well plate and incubated overnight before the spent media was replaced with drugged media. Drug treatment lasted for indicated durations. Protein was extracted using radioimmunoprecipitation (RIPA) assay buffer (Cat #R0278, Sigma-Aldrich, St. Louis, MO) containing cOmplete™, Mini, EDTA-free Protease Inhibitor Cocktail (Cat #4693159001, Roche, Basel, Switzerland) from sub-confluent cells. Denaturing sample buffer was added, samples were boiled at 95 degrees for 10 minutes, and an equal amount of protein lysate was electrophoresed through NuPAGE™ 4 to 12%, Bis-Tris, 1.5 mm, Mini Protein Gels (Invitrogen, Waltham, MA) then transferred to PVDF membranes. The PVDF membrane was blocked with 5% non-fat milk (Sigma-Aldrich, St. Louis, MO) in 1×TTBS. Primary antibodies were incubated with the transferred PVDF membrane in blocking buffer at 4° C. overnight. Secondary antibodies used included Goat anti-Rabbit IgG (H+L) Secondary Antibody, HRP (Cat #31460, Invitrogen, Waltham, MA), and Goat anti-Mouse IgG (H+L) Secondary Antibody, HRP (Cat #31430, Invitrogen, Waltham, MA). Signal was detected using Pierce™ ECL Western Blotting Substrate (Cat #32106, Thermo Scientific, Waltham, MA, USA) and a Syngene Imaging System (RRID: SCR_015770).
# HCT-116 CRC cells = experiment: Western blot analysis of HCT-116 CRC cells; format: cell-based, human; settings: 250 ng/mL IFN-γ
# Experimental: as §1, §2
molecule,measurement,setting,value
"IFN-γ: Recombinant Human IFN-γ (Peprotech) used to treat tumor cells for western blot (protein, UniProt P01579 24-161, looked up) Interferon gamma: QDPYVKEAENLKKYFNAGHSDVADNGTLFLGILKNWKEESDRKIMQSQIVSFYFKLFKNFKDDQSIQKSVETIKEDMNVKFFNSNKKKRDDFEKLTNYSVTDLNVQRKAIHELIQVMAELSPAAKTGKRKRSQMLFRG",gasdermin B expression,HT-29 CRC cells,increase in gasdermin B expression
same,gasdermin B expression,HCT-116 CRC cells,increase in gasdermin B expression
